From patent publication US20240270826A1 (NATIONAL RESEARCH COUNCIL OF CANADA, published 2024) come the findings set out here.

B1: NRCoV2-10 VHH-Fc (Fc fusion)
chain: QLQLQESGGGLVQPGGSLTLSCAASGNTFSRSNMHWYRQAPGAQREWVAAISSRGISTYAYSAKGRFTISRDNAKNTVSLQMNSLKPEDTAVYYCYAADDLGDYWGQGTQVTVSS
notes: bivalent VHH-Fc
B2: NRCoV2-18 VHH-Fc (Fc fusion)
chain: EVQLVESGGGLVQAGGSLRLSCVASGITISGYNMAWWRQTRGKQTERVAFINSGGSTTYSDSVKGRFTISRDNGKNTAYLQMNSLNAEDTADYFCSLHTSHDYWGQGTQVTVSS
notes: bivalent VHH-Fc
B3: NRCoV2-MRed05 VHH-Fc (Fc fusion)
chain: EVQLVESGGGLVQPGGSLRLSCAASGFTLDYYAIGWFRQAPGKEREGVSCISSSDGSTLYADSVKGRFTISRDNAKNTVYLQMNSLKPEDTAVYYCATGPQAYYSGSYYFQCPQAGMDYWGKGTQVTVSS
notes: bivalent VHH-Fc
B4: NRCoV2-20 VHH-Fc (Fc fusion)
chain: EVQLQQSGGGLVQPGGSLRLSCAASGRTFSNYVVGWFRQAPQAPGKDHEFVAVISGSDTETYYADSVKGRFTISRDNAKNTVYLQMNSLKPEDTAVYYCAADRGMSYYYTRATEYYYWGQGTQVTVSS
notes: bivalent VHH-Fc
B5: NRCoV2-MRed04 VHH-Fc (Fc fusion)
chain: EVQLVESGGGLVQPGRSLRLSCAASGNSFSISTMGWFRQAPGKERELVASIWSDTTTSYADSVKGRFTISTDNTRTKVYLQMSSLNPEDTAVYYCAADRGFVVRGQYDYWGQGTQVTVSS
notes: bivalent VHH-Fc
B6: NRCoV2-17 VHH-Fc (Fc fusion)
chain: EVQLQQSGGGLVQTGGSLRLSCAAAGSPFSQLAMSWYRQISGKERAWVASISPTGNRSYSKIAKGRFTISRDNAKNTVTLQMTSLKPEDTAAYICQAANVNGGDYWGQGTQVTVSS
notes: bivalent VHH-Fc
B7: NRCoV2-14 VHH-Fc (Fc fusion)
chain: EVQLVSSGGGLVQAGGSLRLSCEASGTTFSHYAVGWYRQAPGKQREWVASISVFGSTTYGGSVAGRFTISRDNDKNTVDLQMNSLKPEDTAVYYCHAVNADIGGDYWGQGTQVTVSS
notes: bivalent VHH-Fc
B8: NRCoV2-SR13 VHH-Fc (Fc fusion)
chain: EVQLVESGGGLVTTGGSLRLSCATSGSRFGSKHMAWYRQAPGKQRDLVAAISSGGSTHYGSSVKGRFTISRDNAKSTVYLQMNSLNPEDTAVFYCNMGGWDYRSNTYIPGSRSDYWGQGTQVTVSS
notes: bivalent VHH-Fc
B9: NRCoV2-05 VHH-Fc (Fc fusion)
chain: EVKLVQSGGGLVQPGGSLRLSCAASGFIFSNYAMNWVRQAPGKGLEWVSGINSGGGDTRYADSVKGRFTVSRDNAKNTLYLQMNSLKPEDTGVYYCSKGPVSSYYGSGYDYRGQGTQVTVSS
notes: bivalent VHH-Fc
B10: NRCoV2-12 VHH-Fc (Fc fusion)
chain: EVQLQQSGGGLVQAGGSLRLSCAASGRTFRNYVMGWFRQAPQAPGKDHEFVAAISWGGTEIYYADSVKGRFTISRDNAKNTVYLQMNSLKPEDTAVYYCAADRGLSYYYTRTTEYNYWGQGTQVTVSS
notes: bivalent VHH-Fc
B11: NRCoV2-15 VHH-Fc (Fc fusion)
chain: EVQLVSSGGGLVEAGGSLRLSCIASGSTSGRNTMGWFRQAPGKQREWVAIVSTSGATNYAGSVKGRFTLSRDNAKNAVYLQMNNLKPEDTAVYYCYAAYGGGGDYWGQGTQVTVSS
notes: bivalent VHH-Fc
B12: NRCoV2-S2F3 VHH (VHH)
VHH: EVQLVQSGGGLVQAGGSLRLSCATSVRILSVPAMGWYRQAPGKEREMVAVITSGGSTNYADSVKGRFTISRDNAKNTVYLQMNSLKLEDTAVYQCNLRDILSQPFWGQGTQVTVSS
B13: NRCoV2-SR04 VHH (VHH)
VHH: QVQLVESGGGLVQAGGSLRLSCAASGRTFSSHTVGWYRQAPGKQRDLVAAISMGGNTNYADYADSVKGRFTISRDNAKNTLYLQMNSLKPEDTAVYYCNTAALVGNRLLPMATITWGQGTQVTVSS
B14: NRCoV2-S2G4 VHH (VHH)
VHH: QVQLVQSGGGLVQAGGSLTLSCAPSGSTFSGYATNWYRQAPGKQRELVATISSDGDKNYADSVKGRFTISRDNAKNTVYLQMNSLKPEDTAVYYCNKHWWTGDWWGQGTQVTVSS
B15: NRCoV2-S2G3 VHH (VHH)
VHH: QVQLVQSGGGSVQAGGSLRLSCAASGSTFGIFLMGWRRQAPGKQRELVAHITSGGATNYADSVKGRFTISRDNAKNTVYLQMNSLEPEDTAVYYCYTTKRDDASVYWGQGTQVTVSS
B16: NRCoV2-20 VHH (VHH)
VHH: B4 chain
B17: NRCoV2-SR02 VHH (VHH)
VHH: EVQLVDSGGGLVQAGGSLRLSCTASEFTLNYYSIGWFRQSPGKEREGVSCIRYSGGGIDYADSVKGRFTISRDNAKNTVYLTMNSLKPEDTAVYYCAADRLYSRACPTAGGRNYWGQGTQVTVSS
B18: NRCoV2-SR01 VHH (VHH)
VHH: EVQLVQSGGGSVQAGGSLRLSCVASGFTFDNYAIGWFRQAPGKEREGVSCISGNGGVTIYADSVKGRFTISRDNAKNLVYLQMNSLKPEDTAVYYCAATGIRSTWSVYGCSRLAGPYDYWGQGTQVTVSS
B19: NRCoV2-04 VHH-Fc (Fc fusion)
chain: AVQLVDSGGGLVQPGGSLRLSCAASGSPFSNVVMAWYRQAPGKQRERVAFISGGGIADYIMSVKGRFTISRDNAKNTVYLQMNSLKPEDTAVYYCWSSYESTWGQGTQVTVSS
notes: bivalent VHH-Fc
B20: NRCoV2-10 VHH-Fc (Fc fusion)
chain: B1 chain
notes: bivalent VHH-Fc
B21: NRCoV2-MRed05 VHH-Fc (Fc fusion)
chain: B3 chain
notes: bivalent VHH-Fc
B22: NRCoV2-17 VHH-Fc (Fc fusion)
chain: B6 chain
notes: bivalent VHH-Fc
B23: NRCoV2-14 VHH-Fc (Fc fusion)
chain: B7 chain
notes: bivalent VHH-Fc
B24: NRCoV2-1d VHH-Fc (Fc fusion)
chain: EVQLVESGGGSVQPGGSLRLSCAASGSTLDYYAIGWFRQAPGKEREWVSSVSSSDGNTLYADSVKGRFTISRDNAKNTVYLQMNSLKAEDTAVYVCAADYSMRPFAVGRWHRDYEYWGQGTQVTVSS
notes: bivalent VHH-Fc
B25: NRCoV2-02 VHH-Fc (Fc fusion)
chain: EVQLVESGGGLVQAGGSLRLSCAASGFTFSNYAMNWVRQAPGKGLEWVSGISGRGDDTRYADSVKGRFTISRDNAKNTLFLQMRSLRPEDTGVYRCTKGPDLYYFGSGYSDRGQGTQVTVSS
notes: bivalent VHH-Fc
B26: NRCoV2-05 VHH-Fc (Fc fusion)
chain: B9 chain
notes: bivalent VHH-Fc
B27: NRCoV2-15 VHH-Fc (Fc fusion)
chain: B11 chain
notes: bivalent VHH-Fc

The IC50 is the concentration that inhibits the measured activity by half. By IC99 is commonly meant the point of the concentration-response curve where the effect stands at 99%.

The target of one assay is SARS-CoV-2 spike protein S on live virus, Wuhan (strain SARS-CoV-2/Canada/VIDO-01/2020) (SARS-CoV-2 (Wuhan), UniProt P0DTC2 14-1273). Kind of assay: cell-based or functional assay.
With B1, the “LVNA IC50” value stood at 1.28 nM.

For B2, the “LVNA IC50” value was determined as 6.4 nM.

Consider B3, for which the “LVNA IC50” value is 0.17 nM.

Consider B4, for which the “LVNA IC50” value was 11.2 nM.

On to B5, for which the “LVNA IC50” value amounted to 9.61 nM.

As to B6, the “LVNA IC50” value turned out to be 2.82 nM.

With B7, the “LVNA IC50” value was 3.1 nM.

In the case of B8, the “LVNA IC50” value was roughly 100 nM.

For B9, the “LVNA IC50” value came out at 0.0008 nM.

Consider B10, for which the “LVNA IC50” value stood at 2.82 nM.

On to B11, for which the “LVNA IC50” value came out at 0.73 nM.

A further assay has as its target T1, Human SARS-CoV-2_Wuhan S (SmT1) (SARS-CoV-2 (Wuhan), UniProt P0DTC2 14-1208). Kind of assay: tandem SPR, immobilized S, orientation 1: VHH alone.
Regarding B12, the “End 1st inj (RU)” value is 50 RU.

Consider B13, for which the “End 1st inj (RU)” value was found to be 10.9 RU.

Regarding B14, the “End 1st inj (RU)” value stood at 21.3 RU.

With B15, the “End 1st inj (RU)” value was 59 RU.

Turning to B16, the “End 1st inj (RU)” value was 27.1 RU.

For B17, the “End 1st inj (RU)” value was found to be 10.3 RU.

On to B18, for which the “End 1st inj (RU)” value was determined as 39.4 RU.

The target of the next assay is Human SARS-CoV-2_Wuhan S (SmT1) (SARS-CoV-2 (Wuhan), UniProt P0DTC2 14-1208). Nature of the assay: flow cytometry SVNA, VHH-Fc vs biotin-S binding to Vero E6 ACE2. A general note: In flow cytometry, cells or beads pass a laser one at a time.
With B1, the IC50 is 7.7 nM, the IC99 was found to be 77.3 nM and the Imax % was found to be 91%.

The molecule B2 came in with an IC50 of 12 nM, an IC99 of 680 nM and an Imax % of 90%.

In turn, B3 came in with an IC50 of 6.1 nM, an IC99 of 36.3 nM and an Imax % of 95%.

B4 gave an IC50 of 8.7 nM, an IC99 of 70.3 nM and an Imax % of 66%.

In the case of B5, the half-maximal inhibitory concentration (IC50) turned out to be 4.6 nM, the IC99 was 262 nM and the Imax % was determined as 73%.

B6: the IC50 was 8.6 nM, the IC99 worked out at 101 nM and the Imax % was determined as 88%.

B7 showed an IC50 of 9.9 nM, an IC99 of 160 nM and an Imax % of 83%.

As to B8, the IC50 is 23.8 nM, the IC99 turned out to be 1970 nM and the Imax % was 82%.

Take B9: the IC50 is 6.7 nM, the IC99 turned out to be 37 nM and the Imax % was 95%.

For B10, the IC50 was determined as 7.3 nM, the IC99 was 840 nM and the Imax % came to 90%.

B11 had an IC50 of 8.1 nM, an IC99 of 71.5 nM and an Imax % of 95%.

The target in the next assay is T1, Human SARS-CoV-2_Wuhan S (SmT1). Kind of assay: flow cytometry SVNA: VHH-Fc inhibits S binding to ACE2 on Vero E6 cells.
With B19, the half-inhibitory concentration (IC50) amounted to 10.8 nM.

In turn, B20 yielded a 50% inhibitory concentration (IC50) of 8.8 nM.

In the case of B21, the IC50 was found to be 4.3 nM.

Molecule B22 displayed an IC50 of 8.6 nM.

On to B23, for which the IC50 was determined as 7.5 nM.

With B24, the IC50 amounted to 4.7 nM.

On to B25, for which the IC50 is 4.7 nM. This counts as single-digit nanomolar.

B26 yielded an IC50 of 4.9 nM.

B27 showed an IC50 of 5.8 nM.
